Laboratory results from US20240317847A1.
pIC50, pKd: −log10 of the molar value.

Columns and labels:
[1] = target: IL-11 [218-IL from R&D Systems, Inc.] (human) (UniProt P20809); assay: cell-based or functional assay
[2] = target: human IL-11 (human) (UniProt P20809); assay: Tri-complex ELISA, hIL-11 + mIL-11Ra-Fc + hgp130-Fc, inhibition of complex formation
[3] = target: murine IL-11 (mouse) (UniProt P47873); assay: Tri-complex ELISA, mIL-11 + mIL-11Ra-Fc + mgp130-Fc, inhibition of complex formation
murine IL-11 (mouse), sequence (P47873 22-199): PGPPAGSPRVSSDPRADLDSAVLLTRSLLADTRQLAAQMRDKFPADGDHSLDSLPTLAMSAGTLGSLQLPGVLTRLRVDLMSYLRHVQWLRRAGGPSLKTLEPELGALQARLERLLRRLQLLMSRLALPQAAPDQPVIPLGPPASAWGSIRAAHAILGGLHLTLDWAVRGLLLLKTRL

[4] = target: human IL-11 (human) (UniProt P20809); assay: Di-complex ELISA, canine IL11RA-hFc binding to immobilized hIL-11, competition
[5] = target: human IL-11 (human) (UniProt P20809); assay: cell-based or functional assay
[6] = target: murine IL-11 (mouse) (UniProt P47873); assay: cell-based or functional assay
[7] = target: murine IL-11 (mouse) (UniProt P47873); assay: Di-complex ELISA, canine IL11RA-hFc binding to immobilized mIL-11, competition
[8] = target: human IL-11 (human) (UniProt P20809); assay: SPR (Biacore), antibody captured, IL-11 at single concentration 200 nM
[9] = target: murine IL-11 (mouse) (UniProt P47873); assay: as above
[10] = target: human IL-11 (Invigate, e.g., lot #C121021-19) (human) (UniProt P20809); assay: Di-complex ELISA: biotinylated human IL-11 on streptavidin plate, antibody titrated against 2 nM canine IL11RA-human-Fc (competitor)
human IL-11 (Invigate, e.g., lot #C121021-19) (human), sequence (P20809 22-199): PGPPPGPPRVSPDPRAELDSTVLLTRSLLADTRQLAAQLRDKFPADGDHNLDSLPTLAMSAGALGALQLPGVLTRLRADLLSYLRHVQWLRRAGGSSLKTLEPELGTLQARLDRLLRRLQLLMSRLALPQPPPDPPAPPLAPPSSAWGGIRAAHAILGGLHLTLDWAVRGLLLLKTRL

[11] = target: murine IL-11 (Invigate, e.g., lot #C210819-09) (mouse) (UniProt P47873); assay: Di-complex ELISA: biotinylated murine IL-11 on streptavidin plate, antibody titrated against 2 nM canine IL11RA-human-Fc (competitor)
murine IL-11 (Invigate, e.g., lot #C210819-09) (mouse), sequence (P47873 22-199): as the sequence (P47873 22-199) above

[12] = target: murine IL-11 (Invigate, e.g., lot #C210819-09) (mouse) (UniProt P47873); assay: cell-based or functional assay
[13] = target: human IL-11 (Invigate, e.g., lot #C121021-19) (human) (UniProt P20809); assay: cell-based or functional assay
[14] = target: human IL-11 (Invigate, e.g., lot #C121021-19) (human) (UniProt P20809); assay: Tri-complex ELISA: antibody titrated against 8 nM human IL-11, 2 nM human gp130-human-Fc and 2 nM murine IL11RA-murine-Fc
[15] = target: murine IL-11 (Invigate, e.g., lot #C210819-09) (mouse) (UniProt P47873); assay: Tri-complex ELISA: antibody titrated against 8 nM murine IL-11, 2 nM murine gp130-human-Fc and 2 nM murine IL11RA-murine-Fc
[16] = target: murine IL-11 (Invigate, e.g., lot #C210819-09) (mouse) (UniProt P47873); assay: SPR, Biacore T200, 25 C; antibody captured via anti-mouse Fc, IL-11 as analyte, 1:1 Langmuir fit
[17] = target: human IL-11 (Invigate, e.g., lot #C121021-19) (human) (UniProt P20809); assay: as above

human IL-11 (human), sequence (P20809 22-199): as the sequence (P20809 22-199) above
IL-11 [218-IL from R&D Systems, Inc.] (human), sequence (P20809 22-199 limits assumed): as the sequence (P20809 22-199) above

Substance	Efficacy (%) [2] [%]	pIC50 [2]	Efficacy (%) [3] [%]	pIC50 [3]	Efficacy (%) [4] [%]	pIC50 [4]	Efficacy (%), Stat3 reporter gene assay [5] [%]	Efficacy (%), Stat3 reporter gene assay [6] [%]	IC50, Stat3 reporter gene assay [6] [nM]	Efficacy (%) [7] [%]	pIC50 [7]	pKd [8]	pKd [9]	other results
IL-11 function blocking polyclonal antibody AF-418-NA (R&D Systems, Inc.)														secretion of VEGF-A, primary human fibroid slice assay (ng/mg protein) [1]: 17.3
LS-C193526 (antibody)	78.5	8.00	90.3	8.18	90.1	8.00	52.7	88.3	5.6	96.2	8.19	8.20	8.21	IC50, Stat3 reporter gene assay [5]: 50 nM
GTX52814 (antibody)	36.9	7.85	106	7.77	74.9	8.72	5.1	75.5		89.9	8.33	8.48	8.70	
MA5-23711 (antibody)	34.1	7.72	62.3		51.1	7.22	19.9	47.6		70.5	7.54	8.44	8.70	
TPP-14250 (R&D Systems, #MAB218) (antibody)														Efficacy (%) [10]: 67.2%; pIC50 [10]: 8.13; Efficacy (%) [11]: 92.3%; pIC50 [11]: 8.89; Efficacy (%), Stat3 reporter gene assay, mouse Il11ra, 3.13 nM mIL-11 [12]: 69.1%; IC50 [M], Stat3 reporter gene assay, HEK 293F transfected with mouse Il11ra, 3.13 nM mIL-11 [12]: 1.42e-07 M; Efficacy (%), Stat3 reporter gene assay, human IL11RA, 0.78 nM hIL-11 [13]: 27.1%; IC50 [M], Stat3 reporter gene assay, HEK 293F transfected with human IL11RA, 0.78 nM hIL-11 [13]: 2.41e-10 M; Efficacy (%) [14]: 67.2%; pIC50 [14]: 7.42; Efficacy (%) [15]: 60.9%; pIC50 [15]: 7.77; pKd [16]: 8.42; pKd [17]: 7.72
LS-C104441 (antibody)	65.6	7.70	98.4	8.42	71.5	8.28	42.6	88	3.9	91.2	8.46	8.41	8.66	
